Test results reported in patent US20130302346A1 (LEXICON PHARMACEUTICALS, published 2013).
Positions count from the first letter of the chain named. Like-named read-outs stand apart in the source and are kept apart here.

T1: Mouse NOTUM (mouse, UniProt Q8R116 20-503)
T1 sequence: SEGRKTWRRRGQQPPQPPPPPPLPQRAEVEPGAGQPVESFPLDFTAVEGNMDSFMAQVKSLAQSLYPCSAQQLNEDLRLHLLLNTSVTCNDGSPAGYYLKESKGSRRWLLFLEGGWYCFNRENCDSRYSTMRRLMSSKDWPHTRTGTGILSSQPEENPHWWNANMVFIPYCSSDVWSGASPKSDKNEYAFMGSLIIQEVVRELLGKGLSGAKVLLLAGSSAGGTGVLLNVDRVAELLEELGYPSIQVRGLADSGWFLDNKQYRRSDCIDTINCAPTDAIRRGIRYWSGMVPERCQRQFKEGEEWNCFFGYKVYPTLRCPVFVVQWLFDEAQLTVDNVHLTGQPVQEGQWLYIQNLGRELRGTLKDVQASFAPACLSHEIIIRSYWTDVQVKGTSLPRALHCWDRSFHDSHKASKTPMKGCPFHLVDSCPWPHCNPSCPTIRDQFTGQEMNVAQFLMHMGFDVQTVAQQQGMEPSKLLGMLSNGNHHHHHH

T2: Human NOTUM (human, UniProt Q6P988 20-496)
T2 sequence: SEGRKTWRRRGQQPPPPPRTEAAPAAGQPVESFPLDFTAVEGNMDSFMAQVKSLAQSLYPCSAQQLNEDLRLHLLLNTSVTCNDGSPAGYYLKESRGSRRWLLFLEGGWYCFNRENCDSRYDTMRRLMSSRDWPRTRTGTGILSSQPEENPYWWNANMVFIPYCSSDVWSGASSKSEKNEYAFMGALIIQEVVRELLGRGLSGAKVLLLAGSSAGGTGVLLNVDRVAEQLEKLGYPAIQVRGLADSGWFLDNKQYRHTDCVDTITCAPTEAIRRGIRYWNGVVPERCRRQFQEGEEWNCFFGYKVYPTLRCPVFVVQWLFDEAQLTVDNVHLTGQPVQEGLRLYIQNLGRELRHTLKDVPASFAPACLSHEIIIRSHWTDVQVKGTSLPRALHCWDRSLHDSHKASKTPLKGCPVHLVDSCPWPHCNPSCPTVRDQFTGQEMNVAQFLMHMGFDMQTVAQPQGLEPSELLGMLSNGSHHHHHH

T3: Human NOTUM D137A/R139A (human, UniProt Q6P988 20-496)
T3 construct: Alanine mutant, expressed and secreted after transient transfection; little to no activity in the OPTS assay
T3 sequence: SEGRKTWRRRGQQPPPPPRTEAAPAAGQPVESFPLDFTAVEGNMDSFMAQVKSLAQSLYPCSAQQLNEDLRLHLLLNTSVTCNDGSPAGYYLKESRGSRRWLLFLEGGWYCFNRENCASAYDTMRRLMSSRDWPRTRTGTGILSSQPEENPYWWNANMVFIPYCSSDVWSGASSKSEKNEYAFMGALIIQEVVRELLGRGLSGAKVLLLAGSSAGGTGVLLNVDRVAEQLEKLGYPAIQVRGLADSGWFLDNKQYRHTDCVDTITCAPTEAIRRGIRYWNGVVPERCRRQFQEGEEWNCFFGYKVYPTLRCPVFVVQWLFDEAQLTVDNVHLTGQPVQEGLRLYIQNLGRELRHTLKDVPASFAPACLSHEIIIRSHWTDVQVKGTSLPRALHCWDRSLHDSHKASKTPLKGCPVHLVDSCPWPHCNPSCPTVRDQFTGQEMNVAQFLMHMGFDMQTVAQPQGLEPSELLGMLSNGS

T4: Rhesus monkey NOTUM (rhesus monkey, UniProt Q6P988 20-491 (human entry))
T4 construct: Produced by transient transfection; also called Rhesus macaque NOTUM; rhesus NOTUM
T4 chain: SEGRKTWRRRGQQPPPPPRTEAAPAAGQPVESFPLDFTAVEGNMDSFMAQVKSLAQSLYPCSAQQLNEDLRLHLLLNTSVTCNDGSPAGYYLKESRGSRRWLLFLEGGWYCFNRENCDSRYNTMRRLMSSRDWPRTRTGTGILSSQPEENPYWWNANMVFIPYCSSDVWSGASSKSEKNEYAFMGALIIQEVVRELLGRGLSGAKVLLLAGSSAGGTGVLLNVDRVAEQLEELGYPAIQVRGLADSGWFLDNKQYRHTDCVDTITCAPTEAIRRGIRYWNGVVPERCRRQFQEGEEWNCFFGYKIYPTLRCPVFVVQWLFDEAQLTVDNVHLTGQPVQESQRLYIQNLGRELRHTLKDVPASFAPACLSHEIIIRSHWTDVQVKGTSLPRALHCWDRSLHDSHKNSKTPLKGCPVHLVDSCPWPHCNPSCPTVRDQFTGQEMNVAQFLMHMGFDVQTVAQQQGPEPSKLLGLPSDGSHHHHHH

T5: Human NOTUM R144A/R145A (human, UniProt Q6P988 20-496)
T5 construct: Alanine mutant, expressed and secreted after transient transfection
T5 sequence: T3 sequence with A118D, A120R, R125A, R126A

T6: Guinea pig NOTUM (guinea pig, UniProt Q6P988 21-496 (human entry))
T6 construct: Expressed by transient transfection
T6 chain: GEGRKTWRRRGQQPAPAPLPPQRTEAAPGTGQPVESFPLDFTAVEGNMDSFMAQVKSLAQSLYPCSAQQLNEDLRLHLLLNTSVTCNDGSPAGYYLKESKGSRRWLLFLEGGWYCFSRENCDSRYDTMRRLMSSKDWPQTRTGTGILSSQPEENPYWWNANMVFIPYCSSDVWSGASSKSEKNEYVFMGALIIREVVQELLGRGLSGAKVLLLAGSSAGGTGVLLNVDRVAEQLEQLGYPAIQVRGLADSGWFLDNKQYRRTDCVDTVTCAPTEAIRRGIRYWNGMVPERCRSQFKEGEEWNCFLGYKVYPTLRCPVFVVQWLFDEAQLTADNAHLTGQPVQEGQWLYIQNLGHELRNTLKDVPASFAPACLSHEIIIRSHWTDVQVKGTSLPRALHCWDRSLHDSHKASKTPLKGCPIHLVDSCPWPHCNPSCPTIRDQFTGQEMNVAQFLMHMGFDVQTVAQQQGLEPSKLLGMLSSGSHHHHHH

B1: MAb 1.731 (antibody, IgG1, V domains shown)
VH: EVQLQQSGPELVKPGASVKVSCKASGYPFTDYFIHWVKQTHGKSLEWIGYFFPKNGANGYNQKFEGKVTLTVDKSSSTAYMELRSLTSEDSAVYYCARRYGNYYSMDYWGQGTSVTVSS
VL: SFVMTQTPKFLLVSAGDRVTITCKASQSVGDDVAWYQQKPGQSPTLLIYRVSNRYTGVPDRFTGSGYGTDFTFTINTVQAEDLAVYFCQQDYSSPYTFGGGTQLEVKR
B2: MAb 2.78 (antibody, V domains shown)
VH: DVQLVESGGGLVQPGGSRKLSCAASGFTFSSFGMHWVRQAPEKGLEWVAYITSGSGAIYYADTVRGRFTISRDTPKNTLFLQMTSLRSEDTAMYYCARSADGLDYWGQGTSVTVSS
VL: DIQMTQSPASLYVSVGETVTITCRASENIYSNLAWYQQKQGKSPQLLVYGATNLADGVPSRFSGSGSGTQYSLKINSLKSEDFGSYYCQHFWGTPFTFGSGTKLEIKR
notes: Mouse monoclonal antibody from Campaign 2 (raised against mouse NOTUM), IgG2b
B3: MAb 2.1029 (antibody, IgG2a, V domains shown)
VH: QVQLKESGPGLVAPSQSLSITCTVSGFSLTSYGVHWVRQPPGKGLEWLGVIWAGGSTNYNSALMSRLSISKDNSKSQVFLKMNSLQTDDTAIYFCARDGDYGTIYAMDYWGQGTSVTVSS
VL: DIQMTQTTSSLSASLGDRVTISCRASQDISNYLNWYQQKPDGTVKLLIYYTSRLHSGVPSRFTGSGSGTDYSLTISNLEQEDIATYFCQQGKTLPRTFGGGTMLEIKR
notes: Mouse monoclonal antibody from Campaign 2, IgG2a
B4: MAb 2.55 (antibody, IgG2a, V domains shown)
VH: EVQLQQSGTVLARPGALVKMSCKASGYTFTSYWMHWVKQRPGQGLEWIGAIYPGKSDTRYNQKFKDKAKLTAVTSTSTAYMDLSSLTDEDSAVYYCSRRYGNFYAMDYWGQGTSVTVSS
VL: SIVMTQTPKFLLVSAGDRVTMTCKASQSVSNDVAWYQQKPGQSPELLIYYASDRYTGVPDRFTGSGYGTDFTLTISTVQAEDLAVYFCQQDYSSPYTFGGGTKLETKR
notes: as for B3
B5: 1.802 Fab (Fab, V domains shown)
VH: EVQLVESGGGLVKPGGSLKLSCAASGFTFSDYGMHWFRQAPEKGLEWVAYISSGSRTVYYADTVKGRFTISRDNAKNTLSLQMTSLRSEDTAMYYCARKHYNGGYFDVWGTGTTVTVSS
VL: DIVLTQSPASLAVSLGQRATISCRASKIVSTSGYSYMHWYQQKPGQPPKLLIYLASNLESGVPARFSGSGSGTDFTLNIHPVEEEDAATYYCQHSRELPPTFGSGTKLEIKR
notes: Fab made by digestion of whole IgG (mouse IgG1) with ficin
B6: 2.78 Fab (Fab, V domains shown)
VH: B2 VH
VL: B2 VL
notes: Fab made by digestion of whole IgG (mouse IgG2b) with ficin

What was measured:
Mouse NOTUM [1] = molecular target: T1, Mouse NOTUM; assay: cell-based or functional assay
Human NOTUM [2] = molecular target: T2, Human NOTUM; assay: cell-based or functional assay
Mouse NOTUM [3] = molecular target: T1, Mouse NOTUM; assay: cell-based or functional assay; remark: listed apart in the source
Human NOTUM [4] = molecular target: T2, Human NOTUM; assay: cell-based or functional assay; remark: listed apart in the source
Human NOTUM [5] = molecular target: T2, Human NOTUM; assay: Biacore 3000
Procedure: (§1) Binding affinities of certain anti-NOTUM MAbs was determined using a Biacore 3000. In order to obtain meaningful affinity values for binding to multimeric […] NOTUM protein, antibody FAb fragments were generated by digestion of whole IgG with the protease Ficin, followed by removal of undigested IgG and Fc fragments by protein A affinity chromatography. Affinity values for binding of FAbs and whole IgG to human NOTUM corresponded, and their affinity values were in the single to low double digit nM range, as shown in Table 3.

Human NOTUM D137A/R139A = molecular target: T3, Human NOTUM D137A/R139A; assay: ELISA
Rhesus monkey NOTUM = molecular target: T4, Rhesus monkey NOTUM; assay: ELISA
Human NOTUM R144A/R145A = molecular target: T5, Human NOTUM R144A/R145A; assay: ELISA
Guinea pig NOTUM = molecular target: T6, Guinea pig NOTUM; assay: ELISA
Human NOTUM [6] = molecular target: T2, Human NOTUM; assay: cell-based or functional assay; remark: listed apart in the source
Human NOTUM [7] = molecular target: T2, Human NOTUM; assay: ELISA (column 'Human NOTUM binding')
Mouse NOTUM [8] = molecular target: T1, Mouse NOTUM; assay: Biacore 3000
Procedure: as §1

Binder | OPTS IC50 (nM; mouse NOTUM) (Mouse NOTUM [3]) | OPTS IC50 (nM; human NOTUM) (Human NOTUM [4]) | Wnt signaling IC50 (nM; human NOTUM) (Human NOTUM [4]) | Kd (Human NOTUM [5]) | kon (Human NOTUM [5]) | binding result (Rhesus monkey NOTUM) | binding result (Guinea pig NOTUM) | also measured
B1 |  |  |  |  |  |  |  | OPTS IC50 (nM; mouse NOTUM) (Mouse NOTUM [1]): 197 nM; OPTS IC50 (nM; human NOTUM) (Human NOTUM [2]): > 167 nM; Wnt signaling IC50 (nM; human NOTUM) (Human NOTUM [2]): 15.5 nM
B2 | 35.6 nM | 15.5 nM | 45.9 nM | 17.6 nM | 47900 M⁻¹ s⁻¹ | binds | binds | Wnt signaling IC50 (nM; mouse NOTUM) (Mouse NOTUM [3]): 3.75 nM; binding result (Human NOTUM D137A/R139A): no binding; binding result (Human NOTUM R144A/R145A): no binding
B3 | 29.2 nM | 5.77 nM | 14 nM | 5.99 nM | 151000 M⁻¹ s⁻¹ | binds | binds | IC50, neutralization in the Wnt signaling assay (Human NOTUM [6]): 14 nM
B4 | 26.1 nM |  |  |  |  |  |  | binding result (Human NOTUM [7]): binds
B5 |  |  |  | 0.91 nM | 899000 M⁻¹ s⁻¹ |  |  | binding result (Mouse NOTUM [8]): no binding
B6 |  |  |  | 15.4 nM | 87700 M⁻¹ s⁻¹ |  |  | Kd (Mouse NOTUM [8]): 4.99 nM; kon (Mouse NOTUM [8]): 39100 M⁻¹ s⁻¹; koff (Human NOTUM [5]): 0.00136 s⁻¹
